Substrate: Nc1ncnc2c1ncn2[C@@H]1O[C@H](COP(=O)(O)OP(=O)(O)O)[C@@H](O)[C@H]1O
Assay: purified protein
Assay type: biochemical, Thermococcus litoralis
Settings: co-substrate D-glucose varied, Mg2+ (constant free Mg2+), 25 mM Hepes pH 7.8, 40 °C, ordered Bi-Bi, first substrate

B1: TlGK (ADP-dependent glucokinase from Thermococcus litoralis) (Thermococcus litoralis DSM 5473) (protein)
chain: MKESLKDRIRLWKRLYVNAFENALNAIPNVKGVLLAYNTNIDAIKYLDKDDLEKRVTEIGKEKVFEIIENPPEKISSIEELLGGILRSIKLGKAMEWFVESEEVRRYLREWGWDELRIGGQAGIMANLLGGVYRIPTIVHVPQNPKLQAELFVDGPIYVPVFEGNKLKLVHPKDAIAEEEELIHYIYEFPRGFQVFDVQAPRENRFIANADDYNARVYMRREFREGFEEITRNVELAIISGLQVLKEYYPDGTTYRDVLDRVESHLNILNRYNVKSHFEFAYTANRRVREALVELLPKFTSVGLNEVELASIMEIIGDEELAKEVLEGHIFSVIDAMNVLMDETGIERIHFHTYGYYLALTQYRGEEVRDALLFASLAAAAKAMKGNLERIEQIRDALSVPTNERAIVLEEELEKEFTEFENGLIDMVDRQLAFVPTKIVASPKSTVGIGDTISSSAFVSEFGMRKR
notes: recombinant, purified from LB culture as in Merino et al. (heat shock, ammonium sulfate, two chromatographic steps); two-domain enzyme
In the case of B1, the Km is reported as 8.6 µM.

Reference: publication PMC3688580, “Crystal Structure, SAXS and Kinetic Mechanism of Hyperthermophilic ADP-Dependent Glucokinase from Thermococcus litoralis Reveal a Conserved Mechanism for Catalysis” (PLoS ONE, 2013)
